From patent JPH09322796A (dated 1997)
One block for each binder: values may come before it.

Assays:
[1] = target: ヒトFas抗原の細胞外領域とマウスインターロイキン3受容体の細胞外領域との融合タンパク質 (fusion of human Fas extracellular region and mouse IL-3 receptor extracellular region, from phFas-AIC2) (human; mouse) (UniProt P25445); assay: ELISA, COS-1 supernatant with human Fas-mouse IL-3 receptor fusion coated, detection with peroxidase-labelled rat anti-mouse IgM; PBS blank 0.104
[2] = target: T1, Fas抗原 on the human lymphocyte cell line HPB−ALL (human, UniProt P25445 26-335); assay: cell-based or functional assay
T1 sequence (looked up): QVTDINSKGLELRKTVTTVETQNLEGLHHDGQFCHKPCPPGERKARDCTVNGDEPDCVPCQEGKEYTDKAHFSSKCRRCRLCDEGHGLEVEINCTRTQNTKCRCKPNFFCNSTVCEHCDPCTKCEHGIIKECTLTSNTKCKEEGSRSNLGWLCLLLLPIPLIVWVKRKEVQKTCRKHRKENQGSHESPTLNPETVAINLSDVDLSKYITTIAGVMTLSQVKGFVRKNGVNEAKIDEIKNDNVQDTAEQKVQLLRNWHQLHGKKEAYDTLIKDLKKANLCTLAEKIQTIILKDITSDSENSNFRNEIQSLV

B1: マウス抗ヒトFasモノクローナル抗体CH11 (mouse anti-human Fas monoclonal antibody CH11, purified from hybridoma culture supernatant) (antibody, mouse IgM)
heavy: EVQLQQSGPELVKPGASVKISCKASGYTFTDYNMHWVKQSHGKSLEWIGYIYPYNGGTGYNQKFKSKATLTVDNSSSTAYMELRSLTSEDSAVYYCARSYYAMDYWGQGTSVTVSSESQSFPNVFPLVSCESPLSDKNLVAMGCLARDFLPSTISFTWNYQNNTEVIQGIRTFPTLRTGGKYLATSQVLLSPKSILEGSDEYLVCKIHYGGKNRDLHVPIPAVAEMNPNVNVFVPPRDGFSGPAPRKSKLICEATNFTPKPITVSWLKDGKLVESGFTTDPVTIENKGSTPQTYKVISTLTISEIDWLNLNVYTCRVDHRGLTFLKNVSSTCAASPSTDILTFTIPPSFADIFLSKSANLTCLVSNLATYETLNISWASQSGEPLETKIKIMESHPNGTFSAKGVASVCVEDWNNRKEFVCTVTHRDLPSPQKKFISKPNEVHKHPPAVYLLPPAREQLNLRESATVTCLVKGFSPADISVQWLQRGQLLPQEKYVTSAPMPEPGAPGFYFTHSILTVTEEEWNSGETYTCVVGHEALPHLVTERTVDKSTGKPTLYNVSLIMSDTGGTCY
light: DVVMTQSPLSLPVSLGDQASISCRSSKSLVHSNGNTYLHWYLQKPGQSPKLLIYKVSNRFSGVPDRFSGSGSGTDFTLKISRVEAEDLGVYFCSQSTHVPPAFGGGTKLEIKRADAAPTVSIFPPSSEQLTSGGASVVCFLNNFYPKDINVKWKIDGSERQNGVLNSWTDQDSKDSTYSMSSTLTLTKDEYERHNSYTCEATHKTSTSPIVKSFNRNEC
chain: DDEATILADNKCMCTRVTSRIIPSTEDPNEDIVERNIRIVVPLNNRENISDPTSPLRRNFVYHLSDVCKKCDPVEVELEDQVVTATQSNICNEDDGVPETCYMYDRNKCYTTMVPLRYHGETKMVQAALTPDSCYPD
OD 405 −OD 492 [1]: 0.445
ED 50 (ng/ml) (MTT assay, HPB-ALL cells)) [2]: 21.2 ng/mL

B4: 上清[E](pHEX126+pLEX004)に含まれる生産物 (recombinant CH11 H chain + L chain without J chain, COS-1 culture supernatant) (antibody)
heavy: B1 heavy
light: B1 light
OD 405 −OD 492 [1]: 0.33
cytotoxic activity relative to CH11 or to the product of supernatant [F] [2]: ~5 fold
ED 50 (ng/ml) (MTT assay, HPB-ALL cells)) [2]: 4.5 ng/mL
OD 590 −OD 620 (MTT assay, HPB-ALL cells, 12 h; higher = more living cells) [2]: 0.176

B5: 上清[F](pHEX126、pLEX004+pJEX004)に含まれる生産物 (recombinant CH11 H chain + L chain + J chain, COS-1 culture supernatant) (antibody)
heavy: B1 heavy
light: B1 light
chain: B1 chain
OD 405 −OD 492 [1]: 0.202
ED 50 (ng/ml) (MTT assay, HPB-ALL cells)) [2]: 22.9 ng/mL
OD 590 −OD 620 (MTT assay, HPB-ALL cells, 12 h; higher = more living cells) [2]: 0.242

Other lines, results leading:

OD 405 −OD 492 [1]: 0.135
OD 590 −OD 620 (MTT assay, HPB-ALL cells, 12 h; higher = more living cells) [2]: 0.887
B2: pLEX004のみで形質転換したCOS−1細胞の培養上清[C] (CH11 L chain expressed alone) (other)
light: B1 light

OD 405 −OD 492 [1]: 0.109
OD 590 −OD 620 (MTT assay, HPB-ALL cells, 12 h; higher = more living cells) [2]: 0.876
B3: pHEX126のみで形質転換したCOS−1細胞の培養上清[B] (CH11 H chain expressed alone) (other)
heavy: B1 heavy

OD 405 −OD 492 [1]: 0.107
OD 590 −OD 620 (MTT assay, HPB-ALL cells, 12 h; higher = more living cells) [2]: 0.883
B6: pJEX004のみで形質転換したCOS−1細胞の培養上清[D] (CH11 J chain expressed alone) (other)
chain: B1 chain
